Among the data in PMC6396743, “Two membrane-bound transcription factors regulate expression of various type-IV-pili surface structures in Sulfolobus acidocaldarius” are binding result and Kd values, retold here.

The data set has as its target T1, ArnR1 (Sulfolobus acidocaldarius, UniProt Q4J9L2 1-269).
T1 sequence: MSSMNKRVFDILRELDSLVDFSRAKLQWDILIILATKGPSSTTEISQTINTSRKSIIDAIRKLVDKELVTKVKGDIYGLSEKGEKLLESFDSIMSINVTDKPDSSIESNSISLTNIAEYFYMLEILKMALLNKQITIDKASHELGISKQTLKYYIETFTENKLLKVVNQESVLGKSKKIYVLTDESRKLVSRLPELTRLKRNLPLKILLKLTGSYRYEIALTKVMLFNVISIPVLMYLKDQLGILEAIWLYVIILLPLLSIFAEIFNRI
Briefly: MST; MST: 2.5 nM labeled dsDNA, 0.156-18 uM protein, 24 C, 10 min incubation; DNA annealed in 20 mM Tris/HCl pH 8, 200 mM NaCl, 0.05% DDM; protein in 20 mM Tris/HCl. As to conditions: protein: recombinant, tags: N-terminal His10.

[1] abbreviates: label: 5' Alexa Fluor 647, blunt.

B1: pflaB ArnR box-2 (dsDNA)
DNA 1: AACGTCGATCAGCAGTCGAA
DNA 2: TTTCGACTGCTGATCGACGTT
For B1, for the setting “label: 5' Alexa Fluor 647, 5' overhang 1 nt on strand 2 as printed”, the binding result is recorded as “no binding”.

B2: pflaB41 (dsDNA)
DNA 1: ACGTCGATCAGCAGTCGAAAAATTGTGATTTTTGGTCGAAG
DNA 2: CTTCGACCAAAAATCACAATTTTTCGACTGCTGATCGACGT
As for B2, the Kd under setting [1] was 3.31 µM.

B3: paapF (dsDNA)
DNA 1: GTCTAAAGCCATAAAGATGAGCTTATTTTCATAGATTTAAGT
DNA 2: ACTTAAATCTATGAAAATAAGCTCATCTTTATGGCTTTAGAC
On to B3, for which, under setting [1], the binding result is reported as “no binding”.

B4: pSaci_2122 (dsDNA)
DNA 1: ATAATTATTACTCAGCGTTTATAACGTTTAACATGTTAAAA
DNA 2: TTTTAACATGTTAAACGTTATAAACGCTGAGTAATAATTAT
For the molecule B4, the binding result under setting [1] is listed as “no binding”.

B5: pupsX (dsDNA)
DNA 1: TCTCCCATATTACTATTGCCTATCTCGTTAATAGTATTTTC
DNA 2: GAAAATACTATTAACGAGATAGGCAATAGTAATATGGGAGA
With B5, the binding result (label: Alexa Fluor 647, blunt) is listed as “no binding”.

B6: pflaB ArnR box-1 (dsDNA)
DNA 1: ATTGTGATTTTTGGTCGAAG
DNA 2: CTTCGACCAAAAATCACAAT
As to B6, the binding result under setting [1] is recorded as “no binding”.

The term Kd denotes the free concentration of one partner at which half of the binding sites on the other are occupied at equilibrium, for simple one-to-one binding.
